Test results as given in patent US20180187196, “INHIBITORS OF DEK PROTEIN AND RELATED METHODS” (THE REGENTS OF THE UNIVERSITY OF MICHIGAN, published 2018).

T1: DEK (Homo sapiens, UniProt P35659 P35659:1-375)
T1 sequence: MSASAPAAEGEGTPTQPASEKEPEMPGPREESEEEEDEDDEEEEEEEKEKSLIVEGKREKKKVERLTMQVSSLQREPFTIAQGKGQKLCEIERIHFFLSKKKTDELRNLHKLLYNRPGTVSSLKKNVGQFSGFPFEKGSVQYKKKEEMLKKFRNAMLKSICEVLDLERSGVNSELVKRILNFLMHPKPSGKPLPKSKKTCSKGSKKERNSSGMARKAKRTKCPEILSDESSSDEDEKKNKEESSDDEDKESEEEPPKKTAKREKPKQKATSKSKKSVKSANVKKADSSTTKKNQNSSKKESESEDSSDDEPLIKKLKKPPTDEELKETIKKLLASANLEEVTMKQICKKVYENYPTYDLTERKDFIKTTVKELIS


Biological target: T1, DEK
Test: Southwestern blot on denatured DEK with salmon sperm DNA competitor; 300 mM NaCl wash; not quantitated; clones preselected by dot blot filter binding
Conditions: tags: His-tag (pBlueBacHis2A baculovirus, HighFive cells, Ni-NTA purified); label: 5'-32P
Protocol: After determining the sequences of individual aptamer clones, the corresponding DNA oligonucleotides with and without 5′ and 3′ priming sequences were ordered from IDT (Coralville, Iowa), and radiolabeled with ³²P according to the NEB T4 Kinase kit protocol as above. Binding was then tested using a southwestern blot of purified DEK protein. A conventional western blot was performed using PVDF Immobillon P (EMDMillipore, Darmstadt, Germany). After the transfer, the membrane was soaked in PreHyb buffer [(10 mM Hepes (pH 7.9), 100 ug/mL salmon sperm DNA (Sigma-Aldrich, St. Louis, Mo.), 5% bovine serum albumin (Sigma-Aldrich, St. Louis, Mo.)] for 30 min on the shaker at room temperature to block the membrane. The PreHyb buffer was then removed and 5 mL of Hyb Buffer [(10 mM Hepes (pH 7.9), 50 mM NaCl, 1 mM EDTA, 1 mM DTT, 0.25% BSA, 2 ug/ul salmon sperm DNA, 50 million CPM aptamer)] was added and incubated on the shaker at room temperature for one hour. The Hyb Buffer was removed and the membrane was washed 3× on the shaker at room temperature for 20 min with wash buffer [(10 mM Hepes (pH 7.9), 300 mM NaCl, 1 mM EDTA, 1 mM DTT, 0.25% BSA)]. The membranes were dried and exposed on a Typhoon Phosphor imager (GE Healthcare, Pittsburgh, Pa.) cassette overnight to visualize the radiolabeled DNA bound to the bands corresponding to DEK protein. […] No quantitation was determined.

Binder | binding result
DEK aptamer 64 (ssDNA) DNA: ATAGGGAGTCGACCGACCAGAAGGGGTTAAATATTCCCACATTGCCTGCGCCAGTACAAATAGTATGTGCGTCTACATCTAGACT | binds
DEK aptamer 85 (ssDNA) DNA: ATAGGGAGTCGACCGACCAGAATACCGTGGCATCTGGTTGTAGCATCACGTCTTATGCGGCCGTATGTGCGTCTACATCTAGACT | binds
